In series [1] the test system is abdominal aorta aneurysm (AAA) rat model of vascular inflammation. Put plainly: SPECT/CT imaging in abdominal aorta aneurysm (AAA) model. In kind it is in vivo. Particulars: for Pattern of biodistribution / blood clearance route (in words): AAA rat, 74 MBq i.v., SPECT/CT. The source says: Rat model of vascular inflammation that has been set up at the laboratory: the experimental abdominal aorta aneurysm (AAA) induced by local infusion of elastase and followed by intravenous injection of a periodontal bacterium present in human AAA (Porphyromonas gingivalis) and known to induce AAA inflammation (Delbosc et al., 2011, PLoS ONE 6(4): e18679. doi:10.1371/journal.pone.0018679).
Immediately after intravenous injection via the penis vein of 74 MBq of radiolabelled HYNIC-P8RI (obtained using Tricine/EDDA), sequential whole-body acquisitions (every 10 minutes for the first hour) were performed with a hybrid SPECT/CT camera (NanoSPECT/CT, Bioscan Inc.) dedicated to small animals. 10. […] Results 1. Radiolabeling 6-Hydrazinopyridine-3-carboxylic acid (HYNIC) was coupled to the N-terminal amino-acid of the P8RI peptide via a 3(PEG) spacer to obtain HYNIC-P8RI. HYNIC-P8RI was then labeled at high specific activities (>71 GBq/μmol) using tricine, EDDA or Tricine/EDDA as coligands. The tricine/EDDA exchange labeling strategy was chosen because of high labeling yield and resulting in a single major specie as analyzed by HPLC (see FIG. 1).

For series [2] the following is noted: 37° C.
Procedure: (§1) A Dionex Ultimate 3000 system coupled to a Berthold radiometric detector was used for RP-HPLC analysis. A ACE 3 C18, 3μ, 100 Å, 150×4.6 mm column, at a flow rate of 1 mL/min and with UV detection at 220 nm, was employed with the following mobile phases, A: 0.1% TFA/water), B Acetonitrile (ACN). Gradient was: 0-2 min 23% B, 2-20 min 23-50% B, 20-23 min 50-100% B, 23-25 min 100-23% B, 25-28 min 23% B. 2.2 Thin Layer Chromatography TLC was performed using a radiochromatogaph (MiniGita, Raytest, Germany). Stationary phase was silica gel (ITLC-SG, Agilent technologies, USA) and different mobile phases were employed. MEK was used to determine the amount of free ^99mTcO4^− (Rf=1), Anticoagulant Citrate Dextrose Solution (ACD-A, Baxter International, USA) to determine non-peptide-bound ^99mTc-coligands and ^99mTcO4^− (Rf=1), 60% ACN for ^99mTc-colloid (Rf=0). […] In Vitro Stability Study Stability of ^99mTc complexes was assessed in fresh human plasma at 37° C. after 0 min, 30 min, 1 hour, 2 hours and 4 hours of incubation at a concentration of 100 μmol/mL. […] Supernatants were collected and filtered (Millex-GV 0.22 μm PVDF, Merck Millipore, Germany) then assessed by radio-HPLC. […] After one hour, rat was sacrificed and urine was directly collected from the bladder using a syringe and analyzed by radio-HPLC after a 0.22 μm filtration (Millex-GV 0.22 μm PVDF, Merck Millipore, Germany). […]
For series [3] the following is noted: male wistar rat, 74 MBq, urine from bladder 1 hour after injection; listed as [99mTc]EDDA/HYNIC-P8RI.
Procedure: as §1
A further series concerns plasma proteins. In words: in vitro. Particulars: human, fresh human plasma.

Entries after “also recorded” stand apart in the source; their conditions may differ. Where a SMILES comes first, the peptide text is derived from it. [ ]: non-standard residue; d: D form. The star is where a group is joined. ξ: configuration not given here. HYNIC = NNc1ccc(C(=O)*)cn1; PEG3 = NCCOCCOCCOCCC(=O)O; ξK = NCCCCC(N)C(=O)O Some results are limits rather than exact numbers.

Procedure for plasma proteins: as §1

A word on the fraction unbound: it is free concentration divided by total concentration. A lower fraction unbound goes with extensive binding. On to `CC(C)C[C@@H](NC(=O)[C@@H](C)NC(=O)[C@H]1CCCN1C(=O)[C@@H](Cc1c[nH]c2ccccc12)NC(=O)C(CCCCN)NC(=O)CCOCCOCCOCCNC(=O)c1ccc(NN)nc1)C(=O)N[C@H](Cc1ccccc1)C(=O)N[C@@H](C(=O)N[C@H](CCCNC(=N)N)C(=O)O)C(C)C` (stereo partly drawn) [99mTc-HYNIC-P8RI, metal not drawn] ({HYNIC-PEG3}-[ξK][dW][dP][dA][dL][dF][dV][dR]-OH), for which the “Pattern of biodistribution / blood clearance route (in words)” value in series [1] is “almost exclusive renal uptake and excretion”; in series [1] (listed as [99mTc]EDDA/HYNIC-P8RI), “tracer elimination via kidneys; also recorded: almost exclusively renal”. Also, the “Blood clearance rate (in words)” value in series [1] (in vivo, rat) is “rapid blood clearance”. For the same compound, in series [1] (rat, i.v. injection), the “Time of peak activity in kidneys and bladder after injection” value is recorded as 1 h. Besides, in series [2] (4 h of incubation, tricine/EDDA coligands), the “RCP (radiochemical purity) after incubation in human plasma” value is more than 89%. Moreover, in series [2] (up to 4 h, radio-HPLC, listed as [99mTc]EDDA/HYNIC-P8RI), the “In vitro stability in human plasma (in words)” value was “no significant release of degraded radiolabelled peptide”. In addition, the “In vivo stability: species excreted in rat urine by radio-HPLC (in words)” value in series [3] is recorded as “unaltered form of the peptide”. Also, in the series on plasma proteins, the fraction unbound at 4 h was more than 0.95.

The record behind these values is patent US11098124B2, “CD31 shed as a molecular target for imaging of inflammation” (INSTITUT NATIONAL DE LA SANTE ET DE LA RECHERCHE MEDICALE …, priority 2016, dated 2021).
